Measurements reported in paper PMC3914216.

How the values were obtained:
[1] = biological target: T1, HMGA1b (UniProt P17096-2 1-96); test: competition
[2] = biological target: T1, HMGA1b; test: competition; remark: listed apart in the source
[3] = biological target: T1, HMGA1b; test: EMSA

Binder | binding result [1] | other results
CG10 (dsDNA) DNA 1: GGGCCCCCCCCCCCGCGGCGGCCCCGCG DNA 2: CGCGGGGCCGCCGCGGGGGGGGGGGCCC | no binding | 
Mix10 (dsDNA) DNA 1: GGGCGTGACTGAGCGCGGCGGCCCCGCG DNA 2: CGCGGGGCCGCCGCGCTCAGTCACGCCC | no binding | 
ATs10 (dsDNA, phosphorothioate linkages after each of the 10 T (T4-T13) of strand 1; complement unmodified) DNA 1: GGGTTTTTTTTTTCGCGGCGGCCCCGCG DNA 2: CGCGGGGCCGCCGCGAAAAAAAAAACCC |  | binding signal [2]: ~1 ratio to ATf10
ATf10 (dsDNA) DNA 1: CGCGGGGCCGCCGCGAAAAAAAAAAACCC DNA 2: GGGTTTTTTTTTTTCGCGGCGGCCCCGCG |  | binding result [3]: binds
